According to PMC8571082 (2021):

B1: Mint3NT, N-terminal fragment (1–214) of Mint3 [human] / factor inhibiting HIF-1 (FIH-1), full-length [human] (parent complex)
chain 1: MDFPTISRSPSGPPAMDLEGPRDILVPSEDLTPDSQWDPMPGGPGSLSRMELDESSLQELVQQFEALPGDLVGPSPGGAPCPLHIATGHGLASQEIADAHGLLSAEAGRDDLLGLLHCEECPPSQTGPEEPLEPAPRLLQPPEDPDEDSDSPEWVEGASAEQEGSRSSSSSPEPWLETVPLVTPEEPPAGAQSPETLASYPAPQEVPGPCDHED
chain 2: MAATAAEAVASGSGEPREEAGALGPAWDESQLRSYSFPTRPIPRLSQSDPRAEELIENEEPVVLTDTNLVYPALKWDLEYLQENIGNGDFSVYSASTHKFLYYDEKKMANFQNFKPRSNREEMKFHEFVEKLQDIQQRGGEERLYLQQTLNDTVGRKIVMDFLGFNWNWINKQQGKRGWGQLTSNLLLIGMEGNVTPAHYDEQQNFFAQIKGYKRCILFPPDQFECLYPYPVHHPCDRQSQVDFDNPDYERFPNFQNVVGYETVVGPGDVLYIPMYWWHHIESLLNGGITITVNFWYKGAPTPKRIEYPLKAHQKVAIMRNIEKMLGEALGNPQEVGPLLNTMIKGRYN

Variants of: B1
Assay: ITC; measured three times for each FIH-1 mutant

Row | Variant | dG
1 | chain 2 E250A | -9 kcal/mol
2 | chain 2 E79A | -8.7 kcal/mol
3 | chain 2 D248A | -9.3 kcal/mol
4 | chain 2 E29A | -9.1 kcal/mol

Now from value to variant:

Row | dG | Variant
5 | -8.7 kcal/mol | chain 2 N171A
6 | -8.8 kcal/mol | chain 2 K75A
7 | -8.6 kcal/mol | chain 2 Y71A
